Assay results taken from US20220064329A1 (Novo Nordisk, published 2022).

How the values were obtained:
[1] = target: T1, recombinant human activated Factor VII (FVIIa) (human, UniProt P08709 61-212; P08709 213-466, Gla domain: ten glutamate residues may be gamma-carboxylated); assay: cell-based or functional assay
T1 sequence 1: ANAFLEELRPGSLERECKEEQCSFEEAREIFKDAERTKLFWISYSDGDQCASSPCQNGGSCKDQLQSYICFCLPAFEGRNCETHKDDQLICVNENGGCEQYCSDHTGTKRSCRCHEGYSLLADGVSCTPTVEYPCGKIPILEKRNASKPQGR
T1 sequence 2: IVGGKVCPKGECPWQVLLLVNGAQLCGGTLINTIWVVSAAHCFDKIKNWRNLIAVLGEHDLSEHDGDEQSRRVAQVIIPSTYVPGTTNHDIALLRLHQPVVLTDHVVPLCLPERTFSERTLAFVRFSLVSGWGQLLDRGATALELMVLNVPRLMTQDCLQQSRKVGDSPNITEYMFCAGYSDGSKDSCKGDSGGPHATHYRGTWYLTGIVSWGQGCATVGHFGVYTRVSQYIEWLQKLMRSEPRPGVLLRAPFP

[2] = target: T1, recombinant human activated Factor VII …; assay: SPR (Biacore T200), captured antibody, FVIIa injected at 5-135 nM, 1:1 model
Method: Anti-murine IgG (by GE Healthcare) was immobilised on a CM4 sensor chip using standard amine coupling chemistry kit (both supplied by GE Healthcare). […] The running buffer was prepared by diluting 10-fold the 10×HBS-P buffer (supplied by GE Healthcare) and supplemented with 1 mg/ml BSA and 5 mM CaCl₂) to give 10 mM HEPES, 150 mM NaCl, 0.05% v/v Polysorbate 20(P20), pH 7.4, 5 mM CaCl₂), 1 mg/ml bovine serum albumin (BSA). […] Regeneration of the chip was achieved using regeneration buffer consisting of 10 mM Gly-HCl pH 1.7 (supplied by GE Healthcare). Binding data were analysed according to a 1:1 model using BiaEvaluation 4.1 supplied by the manufacturer (Biacore AB, Uppsala, Sweden).

murine FVII(a) = target: T2, murine FVII(a) (mouse, UniProt P70375 42-446); assay: not told; stated as the reason for co-administering human FVII(a) in the mouse model
T2 sequence (looked up): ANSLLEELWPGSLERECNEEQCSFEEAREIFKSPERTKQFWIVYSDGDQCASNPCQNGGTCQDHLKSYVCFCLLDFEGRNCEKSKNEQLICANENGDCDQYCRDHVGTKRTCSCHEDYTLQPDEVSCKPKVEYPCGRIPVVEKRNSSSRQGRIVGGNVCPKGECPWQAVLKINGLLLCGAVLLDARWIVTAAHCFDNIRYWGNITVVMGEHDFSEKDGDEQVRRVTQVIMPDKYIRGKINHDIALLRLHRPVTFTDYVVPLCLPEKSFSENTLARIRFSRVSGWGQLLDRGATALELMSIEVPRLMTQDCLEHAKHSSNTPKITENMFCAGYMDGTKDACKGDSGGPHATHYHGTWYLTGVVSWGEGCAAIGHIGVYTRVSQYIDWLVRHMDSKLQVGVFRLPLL

Binder | AT inhibition (kinh %) [1] [%] | Kd [2] [nM] | binding result (murine FVII(a))
mAb0048 (antibody, human IgG4 S228P, kappa, V domains shown, murine variable domains, human IgG4 S228P constant domain (type A), human kappa; also called 11F2 murine/human chimera) VH: DVQLQESGPGLVEPSQSLSLTCTVTGYSITSDCAWSWIRQFPGNKLEWMGYINYSGSTNYNPSLKSRISVTRDTSKNQFFLRLSSVTAEDTATYYCTRSVNYYGNSFAVGYWGQGTSVTVSS VL: DIVMTQSPATLSVTAGDRVSLSCRASQGISDYLHWYQQKSHESPRLLIKYTSQPVSGIPSRFSGSGSGSEFTLSINSVEPEDVGVYYCQNGHSFPLTFGAGTKLELKR | 109 | 0.029 | 
biAb0001 (bispecific antibody, human IgG4 S228P, kappa, also called anti-FVII(a)/anti-TLT-1 bispecific antibody; mAb0865 x mAb1076) heavy 1: QVQLQESGPGLVKPSQTLSLTCTVSGYSISSDSAWSWIRQPPGKGLEWIGYIQYSGSTNYNPSLKSRVTISRDTSKNQFSLKLSSVTAADTAVYYCARSVNYYGNSFAVGYWGQGTLVTVSSASTKGPSVFPLAPCSRSTSESTAALGCLVKDYFPEPVTVSWNSGALTSGVHTFPAVLQSSGLYSLSSVVTVPSSSLGTKTYTCNVDHKPSNTKVDKRVESKYGPPCPPCPAPEFLGGPSVFLFPPKPKDTLMISRTPEVTCVVVDVSQEDPEVQFNWYVDGVEVHNAKTKPREEQFNSTYRVVSVLTVLHQDWLNGKEYKCKVSNKGLPSSIEKTISKAKGQPREPQVYTLPPSQEEMTKNQVSLTCLVKGFYPSDIAVEWESNGQPENNYKTTPPVLDSDGSFLLYSKLTVDKSRWQEGNVFSCSVMHEALHNHYTQKSLSLSLGK light 1: EIVLTQSPATLSLSPGERATLSCRASQGISDYLHWYQQKPGEAPRLLIKYTSQPATGIPARFSGSGSGTDFTLTISSLEPEDFAVYYCQNGHSFPLTFGQGTKLEIKRTVAAPSVFIFPPSDEQLKSGTASVVCLLNNFYPREAKVQWKVDNALQSGNSQESVTEQDSKDSTYSLSSTLTLSKADYEKHKVYACEVTHQGLSSPVTKSFNRGEC heavy 2: not shown light 2: DIVMTQTPLSSPVTLGQPASISCRSSQSLVHRQGNTYFHWLQQRPGQPPRLLIYKVSNRFSGVPDRFSGSGAGTDFTLKISRVEAEDVGVYYCSQSTHVPYTFGQGTKLEIKRTVAAPSVFIFPPSDEQLKSGTASVVCLLNNFYPREAKVQWKVDNALQSGNSQESVTEQDSKDSTYSLSSTLTLSKADYEKHKVYACEVTHQGLSSPVTKSFNRGEC |  |  | no binding
